Experimental findings from patent US20090202550A1 (WILEX, published 2009) are described below.

In experiment [1] the target is FPRL1 on freshly isolated monocytes (human) (UniProt P25090). In words: cell-based or functional assay.
The target of experiment [2] is T1, soluble recombinant uPAR fragment D2D3 93-274 (human, UniProt Q03405 115-296).
T1 construct: Purified from COS-7 supernatant on an anti-FLAG column; Mature-protein numbering
In words: standard ELISA, coated purified protein, 7G1 as detecting antibody (FIG. 7A). In general terms: An ELISA detects its analyte on a solid surface through an enzyme-linked reagent.

In experiment [3] the target is full length GPI-linked D1D2D3 (cell surface uPAR) (human) (UniProt Q03405). In words: cell-based or functional assay.
Chain of full length GPI-linked D1D2D3 (cell surface uPAR) (human) (Q03405 23-305, one chain of several): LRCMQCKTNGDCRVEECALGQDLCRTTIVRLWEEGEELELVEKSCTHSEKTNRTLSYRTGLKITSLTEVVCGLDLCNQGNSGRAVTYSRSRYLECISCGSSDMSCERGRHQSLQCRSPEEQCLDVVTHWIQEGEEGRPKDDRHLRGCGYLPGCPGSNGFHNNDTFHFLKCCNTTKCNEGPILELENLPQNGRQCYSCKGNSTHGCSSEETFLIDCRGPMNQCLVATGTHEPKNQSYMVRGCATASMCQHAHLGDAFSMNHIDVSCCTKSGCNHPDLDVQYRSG

Chain of FPRL1 on freshly isolated monocytes (human) (P25090 whole entry, the tested form may be a part): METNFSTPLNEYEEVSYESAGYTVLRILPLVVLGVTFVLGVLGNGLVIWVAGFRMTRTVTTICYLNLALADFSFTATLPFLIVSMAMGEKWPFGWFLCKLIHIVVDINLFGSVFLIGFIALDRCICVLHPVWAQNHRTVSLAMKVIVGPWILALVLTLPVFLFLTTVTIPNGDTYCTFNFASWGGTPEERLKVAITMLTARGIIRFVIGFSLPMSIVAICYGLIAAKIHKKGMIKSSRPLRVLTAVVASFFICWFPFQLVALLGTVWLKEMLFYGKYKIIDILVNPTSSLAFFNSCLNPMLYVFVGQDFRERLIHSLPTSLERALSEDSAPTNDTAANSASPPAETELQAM
T1 sequence (Q03405 other isoform, or with tags, fused parts or gaps limits assumed): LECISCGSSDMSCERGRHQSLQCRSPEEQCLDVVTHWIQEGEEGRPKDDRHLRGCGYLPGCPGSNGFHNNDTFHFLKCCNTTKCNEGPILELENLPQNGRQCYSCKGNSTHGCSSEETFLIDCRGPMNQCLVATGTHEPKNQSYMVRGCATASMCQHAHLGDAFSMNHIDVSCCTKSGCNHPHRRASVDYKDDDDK

In experiment [1], MMK-1, FPRL1 ligand (peptide) gave a % induced migration of monocytes, MMK-1 as chemoattractant, rabbit IgG control present of 303% and a Migration fold increase, MMK-1 as chemoattractant, rabbit IgG control present of 2.94 fold.

B1: monoclonal antibody 7G1 (antibody, V domains shown)
VH: VQLQESGPELKKPGETVKISCKASGYTFTDYSMHWVKQAPGKGLKCMGWINTETTKSTYADDFKGRFALSLETSASTVYLQISNLKNEDTATYFCAREASYGEFDYWGQGTTVTVSS
VL: DIVLTQSPASLAVSLGQRATISCRASKSVSTSGYSYMHWYQQKPGQPPKLLIYLASNLESGVPARFSGSGSGTDFTLDIHPVEEEDAATYYCQHSRELPYTFGGGTKLELK
Take B1: the “fold lower recognition than of D2D3 84-274” value in experiment [2] is at least 100 fold. In experiment [3], this molecule came in with a % induced migration (ATF) of monocytes, antibody 50 µg/ml of 210%; a % of inhibition (referred to MOPC treatment) of 10%; a Migration fold increase of 2.44 fold.
